Measurements published in PMC6946549 (Biochemistry, 2019).

B1: ChsH2 (chain beta of the ChsH1-ChsH2-Ltp2 complex) (enzyme)
chain: MTGVSDIQEAVAQIKAAGPSKPRLARDPVNQPMINNWVEAIGDRNPIYVDDAAARAAGHPGIVAPPAMIQVWTMMGLGGVRPKDDPLGPIIKLFDDAGYIGVVATNCEQTYHRYLLPGEQVSISAELGDVVGPKQTALGEGWFINQHIVWQVGDEDVAEMNWRILKFKPAGSPSSVPDDLDPDAMMRPSSSRDTAFFWDGVKAHELRIQRLADGSLRHPPVPAVWQDKSVPINYVVSSGRGTVFSFVVHHAPKVPGRTVPFVIALVELEEGVRMLGELRGADPARVAIGMPVRATYIDFPDWSLYAWEPDE
B2: Ltp2 (17-hydroxy-3-oxo-4-pregnene-20-carboxyl-CoA retro-aldolase; chain gamma of the ChsH1-ChsH2-Ltp2 complex) (enzyme)
chain: MLSGQAAIVGIGATDFSKNSGRSELRLAAEAVLDALADAGLSPTDVDGLTTFTMDTNTEIAVARAAGIGELTFFSKIHYGGGAACATVQHAAMAVATGVADVVVAYRAFNERSGMRFGQVQTRLTENADSTGVDNSFSYPHGLSTPAAQVAMIARRYMHLSGATSRDFGAVSVADRKHAANNPKAYFYGKPITIEDHQNSRWIAEPLRLLDCCQETDGAVAIVVTSAARARDLKQRPVVIEAAAQGCSPDQYTMVSYYRPELDGLPEMGLVGRQLWAQSGLTPADVQTAVLYDHFTPFTLIQLEELGFCGKGEAKDFIADGAIEVGGRLPINTHGGQLGEAYIHGMNGIAEGVRQLRGTSVNPVAGVEHVLVTAGTGVPTSGLILG

Assays:
[1] = biological target: B2; assay: SAXS
negative-stain EM = biological target: the molecule itself; assay: negative-stain EM

Binder	binding result [1]	binding result (negative-stain EM)
B1	binds	
B2		binds
